# In PMC4835898 (Frontiers in Microbiology, 2016):
# Legend:
# [1] = biological target: T1, Bacillus subtilis DnaK Y601F, 6xHis-tagged (Bacillus subtilis 168, UniProt P17820 1-611, Y601F, to some extent phosphorylated during heterologous expression in E. coli (on residues other than 601); residues not told for this preparation); assay: pull-down; 100 ug 6xHis-DnaK (WT or Y601F) and 100 ug Strep-tagged DnaJ or GrpE incubated with 1 ug anti-6xHis antibody (HIS.H8) in 450 uL IP Lysis/Wash Buffer (Pierce Classic IP Kit); captured on Protein A/G agarose; eluates blotted with anti-Strep tag and anti-His tag; settings: both partners purified
# T1 construct: the mutant is described as a version of the same protein in the same vector; source: E. coli (NEB Express Iq), purified (Ni-NTA, desalted on PD-10); not shown: 6xHis, N-terminal, kept
# [2] = biological target: T2, Bacillus subtilis DnaK wild type, 6xHis-tagged (Bacillus subtilis 168, UniProt P17820 1-611, to some extent phosphorylated (phosphotyrosine signal) during heterologous expression in E. coli; residues and extent not told for this preparation); assay: as above; settings: both partners purified
# T2 construct: probably the whole ORF, since Y601 lies near the C-terminus; also called DnaK WT; WT DnaK; source: E. coli (NEB Express Iq), purified (Ni-NTA, desalted on PD-10); not shown: 6xHis, N-terminal, kept
binding result [1],binding result [2],Binder
binds,binds,"Bacillus subtilis GrpE, Strep-tagged (natural protein, Bacillus subtilis 168, UniProt P15874 1-187, looked up, Made in a pQE-30 vector in which the His-tag was replaced by a strep-tag (Jers et al., 2010)) MSEEKQTVEQNETEEQEIIEEQAAADEQQEETNESELLQNQINELQGLLEEKENKLLRVQADFENYKRRSRLEMEASQKYRSQNIVTDLLPALDSFERALQVEADNEQTKSLLQGMEMVHRQLVEALKKEGVEAIEAVGQEFDPNLHQAVMQAEDENYGSNIVVEEMQKGYKLKDRVIRPSMVKVNQ"
binds,binds,"Bacillus subtilis DnaJ, Strep-tagged (natural protein, Made in a pQE-30 vector in which the His-tag was replaced by a strep-tag (Jers et al., 2010)) not shown"
